B2: C/EBPβ-PThr^217 (mouse C/EBPβ phosphorylated on Thr217) (other)
chain: MHRLLAWDAACLPPPPAAFRPMEVANFYYEPDCLAYGAKAARAAPRAPAAEPAIGEHERAIDFSPYLEPLAPAADFAAPAPAHHDFLSDLFADDYGAKPSKKPADYGYVSLGRAGAKAAPPACFPPPPPAALKAEPGFEPADCKRADDAPAMAAGFPFALRAYLGYQATPSGSSGSLSTSSSSSPPGTPSPADAKAAPAACFAGPPAAPAKAKAKKTVDKLSDEYKMRRERNNIAVRKSRDKAKMRNLETQHKVLELTAENERLQKKVEQLSRELSTLRNLFKQLPEPLLASAGHC
modifications: phosphothreonine at 217
notes: Endogenous, phosphorylated in stellate cells after CCl4 or on collagen type I
B3: purified recombinant procaspase 8 (human, Alexis Biochemicals) (enzyme, UniProt Q14790 217-479, looked up)
chain: SESQTLDKVYQMKSKPRGYCLIINNHNFAKAREKVPKLHSIRDRNGTHLDAGALTTTFEELHFEIKPHDDCTVEQIYEILKIYQLMDHSNMDCFICCILSHGDKGIIYGTDGQEAPIYELTSQFTGLKCPSLAGKPKVFFIQACQGDNYQKGIPVETDSEEQPYLEMDLSSPQTRYIPDEADFLLGMATVNNCVSYRNPAEGTWYIQSLCQSLRERCPRGDDILTILTEVNYEVSNKDDKKNMGKQMPQPTFTLRKKLVFPSD
notes: also called recombinant caspase 8; procaspases 8; not shown: 21 amino acid linker at the N-terminus from the expression vector

For assay [1], the target named is B3. Kind of assay: co-immunoprecipitation of purified recombinant proteins (C/EBPβ peptides 200 µM), immunoblot, densitometry; reference C/EBPβ-HA-Ala217. On the technique in general: In western blotting, separated proteins are transferred to a membrane and probed.
Assay [2] deals with T1, procaspase 1 (endogenous, mouse hepatic stellate cells) (mouse, UniProt P29452 1-402).
T1 construct: also called procaspases 1
T1 sequence (looked up): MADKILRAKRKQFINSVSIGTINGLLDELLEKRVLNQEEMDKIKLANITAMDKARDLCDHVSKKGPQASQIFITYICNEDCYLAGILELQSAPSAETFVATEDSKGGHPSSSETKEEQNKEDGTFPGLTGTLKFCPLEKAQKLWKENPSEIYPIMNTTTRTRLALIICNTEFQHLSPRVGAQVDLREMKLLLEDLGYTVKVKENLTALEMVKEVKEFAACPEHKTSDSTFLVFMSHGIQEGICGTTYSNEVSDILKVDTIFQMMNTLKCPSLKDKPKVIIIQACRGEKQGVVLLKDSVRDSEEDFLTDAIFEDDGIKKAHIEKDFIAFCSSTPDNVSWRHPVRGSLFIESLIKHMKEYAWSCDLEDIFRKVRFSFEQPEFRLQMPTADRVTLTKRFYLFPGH
Kind of assay: anti-HA co-immunoprecipitation and immunoblot, transfected activated stellate cells.
Description: (§1) The expressed peptides were immunoprecipitated with anti-HA antibodies.

Assay [3] addresses T2, procaspase 8 (endogenous, mouse hepatic stellate cells) (mouse, UniProt O89110 1-480).
T2 construct: also called procaspases 8
T2 sequence (looked up): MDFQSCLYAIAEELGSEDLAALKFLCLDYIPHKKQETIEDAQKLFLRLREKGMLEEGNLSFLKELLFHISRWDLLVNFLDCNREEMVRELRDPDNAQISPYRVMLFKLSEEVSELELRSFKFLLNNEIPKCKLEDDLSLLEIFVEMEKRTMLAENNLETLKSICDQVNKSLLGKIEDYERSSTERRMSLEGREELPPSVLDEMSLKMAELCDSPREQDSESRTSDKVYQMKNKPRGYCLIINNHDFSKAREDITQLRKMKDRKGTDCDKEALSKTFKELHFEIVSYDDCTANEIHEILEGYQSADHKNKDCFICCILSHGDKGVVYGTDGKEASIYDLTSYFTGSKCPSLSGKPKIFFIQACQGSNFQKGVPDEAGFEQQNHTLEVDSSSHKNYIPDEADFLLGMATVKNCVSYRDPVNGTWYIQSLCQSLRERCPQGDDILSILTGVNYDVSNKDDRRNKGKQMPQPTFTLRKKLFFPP
Described as above.
Description: as §1

Assay [4] deals with T3, procaspase 9 (endogenous, mouse hepatic stellate cells) (mouse, UniProt Q8C3Q9 1-454).
T3 construct: also called effector procaspase 9
T3 sequence (looked up): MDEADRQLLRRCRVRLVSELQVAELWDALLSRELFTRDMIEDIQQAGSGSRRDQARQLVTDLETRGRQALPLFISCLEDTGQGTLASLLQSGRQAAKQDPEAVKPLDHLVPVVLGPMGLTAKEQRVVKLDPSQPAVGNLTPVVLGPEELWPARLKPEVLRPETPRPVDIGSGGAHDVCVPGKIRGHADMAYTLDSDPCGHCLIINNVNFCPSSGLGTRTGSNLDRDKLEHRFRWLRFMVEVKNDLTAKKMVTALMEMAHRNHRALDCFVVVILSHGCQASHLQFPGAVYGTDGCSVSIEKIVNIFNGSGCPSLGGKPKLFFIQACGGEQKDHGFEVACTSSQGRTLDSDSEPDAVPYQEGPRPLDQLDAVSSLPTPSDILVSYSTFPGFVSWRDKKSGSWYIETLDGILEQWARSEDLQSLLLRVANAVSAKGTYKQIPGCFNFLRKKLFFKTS
Briefly: C/EBPβ immunoprecipitation and immunoblot, stellate cells of CCl4-treated C/EBPβ+/+ mice.

Assay [5] concerns the target T4, procaspase 7 (endogenous, mouse hepatic stellate cells) (mouse, UniProt P97864 1-303).
T4 construct: also called effector procaspase 7
T4 sequence (looked up): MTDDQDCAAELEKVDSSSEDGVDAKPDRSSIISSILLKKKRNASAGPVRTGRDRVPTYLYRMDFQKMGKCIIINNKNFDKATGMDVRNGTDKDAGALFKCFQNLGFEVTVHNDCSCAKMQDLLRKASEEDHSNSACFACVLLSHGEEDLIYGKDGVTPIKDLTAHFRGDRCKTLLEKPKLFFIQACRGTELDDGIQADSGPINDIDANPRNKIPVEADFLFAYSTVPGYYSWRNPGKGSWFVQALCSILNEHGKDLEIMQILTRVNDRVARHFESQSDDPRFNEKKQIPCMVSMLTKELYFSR
Described as above.

The next assay has as its target T5, C/EBPβ-HA-Ala^217 (mouse, UniProt P28033 1-296, limits assumed).
T5 construct: not shown: HA (hemagglutinin) tag
T5 sequence: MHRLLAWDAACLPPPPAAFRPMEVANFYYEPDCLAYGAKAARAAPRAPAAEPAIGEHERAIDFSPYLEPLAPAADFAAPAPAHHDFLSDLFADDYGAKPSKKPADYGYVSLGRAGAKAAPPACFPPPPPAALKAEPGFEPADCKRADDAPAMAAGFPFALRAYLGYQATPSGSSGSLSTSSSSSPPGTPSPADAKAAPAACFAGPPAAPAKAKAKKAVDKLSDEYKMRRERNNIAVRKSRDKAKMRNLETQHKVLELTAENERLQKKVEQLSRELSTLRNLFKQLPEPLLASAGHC
Kind of assay: co-immunoprecipitation of purified recombinant proteins.

Assay [6] concerns the target B2. Kind of assay: C/EBPβ immunoprecipitation and immunoblot, stellate cells of CCl4-treated C/EBPβ+/+ mice.

B1: C/EBPβ-HA-Glu^217 (other, not shown: small tags and cut ends)
chain: MHRLLAWDAACLPPPPAAFRPMEVANFYYEPDCLAYGAKAARAAPRAPAAEPAIGEHERAIDFSPYLEPLAPAADFAAPAPAHHDFLSDLFADDYGAKPSKKPADYGYVSLGRAGAKAAPPACFPPPPPAALKAEPGFEPADCKRADDAPAMAAGFPFALRAYLGYQATPSGSSGSLSTSSSSSPPGTPSPADAKAAPAACFAGPPAAPAKAKAKKEVDKLSDEYKMRRERNNIAVRKSRDKAKMRNLETQHKVLELTAENERLQKKVEQLSRELSTLRNLFKQLPEPLLASAGHC
For the molecule B1, in assay [1], the “fold more co-immunoprecipitated than the Ala^217 peptides (densitometry)” value was 12 fold. For the same molecule, the binding result in assay [2] and in assay [3] was “binds” in each case.

On to B2, for which the binding result in assay [4] and in assay [5] was “no binding” in each case.

Take B3: the binding result with C/EBPβ-HA-Ala^217 is reported as “no binding”.

B4: procaspase 3 (endogenous, mouse hepatic stellate cells) (enzyme, UniProt P70677 1-277, looked up)
chain: MENNKTSVDSKSINNFEVKTIHGSKSVDSGIYLDSSYKMDYPEMGICIIINNKNFHKSTGMSSRSGTDVDAANLRETFMGLKYQVRNKNDLTREDILELMDSVSKEDHSKRSSFVCVILSHGDEGVIYGTNGPVELKKLTSFFRGDYCRSLTGKPKLFIIQACRGTELDCGIETDSGTDEEMACQKIPVEADFLYAYSTAPGYYSWRNSKDGSWFIQSLCSMLKLYAHKLEFMHILTRVNRKVATEFESFSLDSTFHAKKQIPCIVSMLTKELYFYH
notes: also called effector procaspase 3
Regarding B4, the binding result in assay [6] is reported as “no binding”.

Values taken from patent publication US20100035825A1 (University of California, published 2010).
